Results taken from publication PMC3917506.
Read-outs that look alike come from different tables or passages of the source.

Experiments:
Test in all cases: FRET or BRET
Venus-IQGAP1 (human) = Venus-IQGAP1 (human) (UniProt P46940)
mCherry-actin [1] = target: mCherry-actin (UniProt P60709)
mCherry-actin [2] = target: mCherry-actin (UniProt P60709); remark: listed apart in the source
mCherry-actin [3] = target: mCherry-actin (UniProt P60709); remark: listed apart in the source

Sequence of Venus-IQGAP1 (P46940 whole entry): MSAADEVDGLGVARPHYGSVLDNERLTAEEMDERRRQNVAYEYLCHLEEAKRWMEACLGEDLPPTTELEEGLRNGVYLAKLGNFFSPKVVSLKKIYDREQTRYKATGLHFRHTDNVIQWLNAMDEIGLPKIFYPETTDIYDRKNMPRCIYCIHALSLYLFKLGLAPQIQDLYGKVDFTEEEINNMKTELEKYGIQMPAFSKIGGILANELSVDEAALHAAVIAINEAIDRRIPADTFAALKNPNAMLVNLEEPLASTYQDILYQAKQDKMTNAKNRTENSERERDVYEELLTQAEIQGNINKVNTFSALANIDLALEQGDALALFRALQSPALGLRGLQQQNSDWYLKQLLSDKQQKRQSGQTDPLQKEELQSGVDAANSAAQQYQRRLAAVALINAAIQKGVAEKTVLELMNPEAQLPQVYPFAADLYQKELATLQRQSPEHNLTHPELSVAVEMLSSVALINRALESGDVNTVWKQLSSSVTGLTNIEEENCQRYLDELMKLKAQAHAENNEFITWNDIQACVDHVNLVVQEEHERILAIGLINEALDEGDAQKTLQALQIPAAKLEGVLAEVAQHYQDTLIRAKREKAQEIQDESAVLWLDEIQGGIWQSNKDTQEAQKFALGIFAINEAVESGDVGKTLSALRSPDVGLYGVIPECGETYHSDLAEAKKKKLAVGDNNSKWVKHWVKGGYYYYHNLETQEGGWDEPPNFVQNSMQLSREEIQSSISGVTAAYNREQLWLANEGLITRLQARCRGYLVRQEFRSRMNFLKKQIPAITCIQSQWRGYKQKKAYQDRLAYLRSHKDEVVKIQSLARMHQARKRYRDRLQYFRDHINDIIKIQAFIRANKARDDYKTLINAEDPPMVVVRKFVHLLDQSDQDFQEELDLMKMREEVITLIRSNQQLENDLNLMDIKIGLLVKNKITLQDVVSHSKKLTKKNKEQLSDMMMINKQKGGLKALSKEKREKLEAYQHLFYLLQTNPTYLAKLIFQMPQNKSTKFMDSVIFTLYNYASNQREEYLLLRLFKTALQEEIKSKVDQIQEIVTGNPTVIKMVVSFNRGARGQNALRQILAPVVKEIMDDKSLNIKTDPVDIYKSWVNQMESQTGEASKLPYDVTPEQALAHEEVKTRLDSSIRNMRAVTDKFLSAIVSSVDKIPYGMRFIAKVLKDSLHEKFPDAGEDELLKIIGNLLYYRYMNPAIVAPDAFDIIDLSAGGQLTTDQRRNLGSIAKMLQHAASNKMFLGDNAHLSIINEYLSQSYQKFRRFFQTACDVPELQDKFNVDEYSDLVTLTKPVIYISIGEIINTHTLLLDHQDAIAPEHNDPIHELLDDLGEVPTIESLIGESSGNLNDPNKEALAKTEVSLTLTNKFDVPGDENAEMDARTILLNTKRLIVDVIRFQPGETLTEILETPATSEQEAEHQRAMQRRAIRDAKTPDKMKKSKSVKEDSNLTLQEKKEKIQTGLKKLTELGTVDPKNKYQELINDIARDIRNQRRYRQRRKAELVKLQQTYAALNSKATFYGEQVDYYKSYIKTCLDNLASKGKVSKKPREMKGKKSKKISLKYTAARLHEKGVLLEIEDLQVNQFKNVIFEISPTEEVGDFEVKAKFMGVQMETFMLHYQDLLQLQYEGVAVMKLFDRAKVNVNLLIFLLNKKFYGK
Sequence of Venus-IQGAP1 (human) (P46940 whole entry): as above
Sequence of CFP-Cdc42, P60953 1-191 (natural protein; other documents disagree on this pair) (P60953 whole entry): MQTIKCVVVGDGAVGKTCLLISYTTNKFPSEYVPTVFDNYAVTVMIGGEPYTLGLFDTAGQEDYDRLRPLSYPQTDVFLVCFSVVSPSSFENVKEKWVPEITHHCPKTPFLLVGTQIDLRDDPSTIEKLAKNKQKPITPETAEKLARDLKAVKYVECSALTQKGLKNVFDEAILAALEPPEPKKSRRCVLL

| FRET efficiency E% at low D:A ratios (regression line) (Venus-IQGAP1 (human)) [%] | average FRET efficiency E% (Venus-IQGAP1 (human)) [%] | average FRET efficiency E% (mCherry-actin [1]) [%] | FRET efficiency E% at low D:A ratios (regression line) (mCherry-actin [2]) [%] | average FRET efficiency E% (mCherry-actin [2]) [%] | FRET efficiency E% at low D:A ratios (regression line) (mCherry-actin [3]) [%] | Substance |
| --- | --- | --- | --- | --- | --- | --- |
| 25 | 20 |  |  |  |  | CFP-Cdc42, P60953 1-191 (natural protein; other documents disagree on this pair) |
|  |  | 26 | 25 to 35 | 31 | 25 to 35 | Venus-IQGAP1 (from UniProt P46940 1-1657) (natural protein) |
